# Source: PMC3160658
# Columns and labels:
# [1] = biological target: RAD52 Y104pCMF Y104pCMF (Homo sapiens) (UniProt P43351); test: single-molecule FRET; settings: amino modifier C6 dT at last dT of gap
# RAD52 (Homo sapiens) [2] = biological target: T1, RAD52 (Homo sapiens) (UniProt P43351); test: single-molecule FRET; settings: amino modifier C6 dT at last dT of gap
# T1 sequence: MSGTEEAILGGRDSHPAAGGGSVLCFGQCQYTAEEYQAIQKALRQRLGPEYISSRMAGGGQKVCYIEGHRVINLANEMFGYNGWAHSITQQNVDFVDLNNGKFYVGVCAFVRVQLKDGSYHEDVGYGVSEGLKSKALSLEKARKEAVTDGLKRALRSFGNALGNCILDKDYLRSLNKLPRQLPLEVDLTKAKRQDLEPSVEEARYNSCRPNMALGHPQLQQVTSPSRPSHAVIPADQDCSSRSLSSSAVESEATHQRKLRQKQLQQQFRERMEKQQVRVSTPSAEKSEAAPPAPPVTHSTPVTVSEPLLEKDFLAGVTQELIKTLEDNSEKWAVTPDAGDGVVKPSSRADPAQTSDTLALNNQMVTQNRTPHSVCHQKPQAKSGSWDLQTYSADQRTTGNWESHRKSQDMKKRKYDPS
# [3] = biological target: RAD52 Y104pCMF Y104pCMF (Homo sapiens) (UniProt P43351); test: FRET titration; settings: scale: nM protein at maximum FRET
# RAD52 (Homo sapiens) [4] = biological target: T1, RAD52 (Homo sapiens); test: competition
substance,measurement,setting,value
"TATGCTCTAAGCCATCCATGTATTTTTTTTTTTTTTTTTTTTTTTTTTTTCCCTAGATACCAGTAGATTCGGAAA / TTTCCGAATCTACTGGTATCTAGGG / TACATGGATGGCTTAGAGCATA [gapped DNA, 28-nt (dT) gap]",binding signal (% molecules in high FRET (wrapped) state),[1],43.5
same,binding signal (% molecules in high FRET (wrapped) state),RAD52 (Homo sapiens) [2],9.47
TTTTTTTTTTTTTTTTTTTTTTTTTTTTTT [Cy5-(dT)30-Cy3],binding signal,[3],5
linearized PhiX174 RFI dsDNA,binding signal (% ssDNA released at 150 nM nt dsDNA),RAD52 (Homo sapiens) [4],95.1
